Experimental data from article PMC3749956 (PLoS Pathogens, 2013).

B1: Vaccinia virus A27 protein, full length wild type (natural protein)
chain: MDGTLFPGDDDLAIPATEFFSTKAAKKPEAKREAIVKADEDDNEETLKQRLTNLEKKITNVTTKFEQIEKCCKRNDEVLFRLENHAETLRAAMISLAKKIDVQTGRRPYE

Experiments:
[1] = target: tA27-WT (aa 21–84, C71A/C72A, extra N-terminal tryptophan) (vaccinia virus (Western Reserve strain)) (UniProt P11258); assay: AUC
[2] = target: tA27-WT (aa 21–84, C71A/C72A, extra N-terminal tryptophan) (vaccinia virus (Western Reserve strain)) (UniProt P11258); assay: SEC-MALS
[3] = target: the molecule itself; assay: non-reducing SDS-PAGE with immunoblot (disulfide-linked complexes)

Molecule	stoichiometry N [1]	stoichiometry N [2]	stoichiometry N [3]
tA27-WT (aa 21–84, C71A/C72A, extra N-terminal tryptophan) (from UniProt P11258 21-84) (domain or fragment)	2	2	–
B1	–	–	2
